# Experimental data taken from US10130693B2, “Peptides, combination of peptides and scaffolds for use in immunotherapeutic treatment of various cancers” (Immatics Biotechnologies GmbH, priority 2015, dated 2018).
# Target: HLA-A*02:01 (Homo sapiens, UniProt P04439, D140Y/D185E/D98H/E176V/E277Q/G131W/G231S/I119V/I121R/I166T/I218V/L300P/L318F/N151K/N90K/P208A/P217A/Q86G/Q94H/R138H/R169H/T345S)
# Experiment: MHC binding assay, UV-ligand exchange with beta2m ELISA (exchange yield), HLA-A*02
# Conditions: binding to HLA-A*02 ranged by peptide exchange yield
# Text: Candidate peptides for T cell based therapies according to the present invention were further tested for their MHC binding capacity (affinity). The individual peptide-MHC complexes were produced by UV-ligand exchange, where a UV-sensitive peptide is cleaved upon UV-irradiation, and exchanged with the peptide of interest as analyzed. Only peptide candidates that can effectively bind and stabilize the peptide-receptive MHC molecules prevent dissociation of the MHC complexes. To determine the yield of the exchange reaction, an ELISA was performed based on the detection of the light chain (β2m) of stabilized MHC complexes. The assay was performed as generally described in Rodenko et al. (Rodenko et al., 2006).
# 96 well MAXISorp plates (NUNC) were coated over night with 2 ug/ml streptavidin in PBS at room temperature, washed 4× and blocked for 1 h at 37° C. in 2% BSA containing blocking buffer. […] Peptide-MHC monomers of the UV-exchange reaction were diluted 100 fold in blocking buffer. Samples were incubated for 1 h at 37° C., washed four times, incubated with 2 ug/ml HRP conjugated anti-β2m for 1h at 37° C., washed again and detected with TMB solution that is stopped with […]. Absorption was measured at 450 nm. Candidate peptides that show a high exchange yield (preferably higher than 50%, most preferred higher than 75%) are generally preferred for a generation and production of antibodies or fragments thereof, and/or T cell receptors or fragments thereof, as they show sufficient avidity to the MHC molecules and prevent dissociation of the MHC complexes.
row,Substance,Peptide exchange (MHC class I binding score)
1,334 (GRADALRVL; listed as Homo sapiens) [compound 334],+++ (50%-75% = +++)
2,11 (GVLKVFLENV; listed as Homo sapiens) [compound 11],++ (20%-49% = ++)
3,65 (KLDGICWQV; listed as Homo sapiens) [compound 65],+++ (50%-75% = +++)
4,80 (TLDEYLTYL; listed as Homo sapiens) [compound 80],+++ (50%-75% = +++)
5,32 (ILADEAFFSV; listed as Homo sapiens) [compound 32],+++ (50%-75% = +++)
6,6 (FLDPAQRDL; listed as Homo sapiens) [compound 6],+++ (50%-75% = +++)
7,40 (SLLALPQDLQA; listed as Homo sapiens) [compound 40],+++ (50%-75% = +++)
8,44 (GLLWQIIKV; listed as Homo sapiens) [compound 44],++ (20%-49% = ++)
9,340 (SVAKTILKR; listed as Homo sapiens) [compound 340],++ (20%-49% = ++)
10,327 (SIGDIFLKY; listed as Homo sapiens) [compound 327],+++ (50%-75% = +++)
11,324 (AIFDFCPSV; listed as Homo sapiens) [compound 324],++++ (>=75% = ++++)
12,83 (ELLEYLPQL; listed as Homo sapiens) [compound 83],+++ (50%-75% = +++)
13,64 (GLSSSSYEL; listed as Homo sapiens) [compound 64],++ (20%-49% = ++)
14,3 (TLLGKQVTL; listed as Homo sapiens) [compound 3],+++ (50%-75% = +++)
15,74 (ILDETLENV; listed as Homo sapiens) [compound 74],++ (20%-49% = ++)
16,16 (HLYNNEEQV; listed as Homo sapiens) [compound 16],++ (20%-49% = ++)
17,67 (GVIETVTSL; listed as Homo sapiens) [compound 67],++ (20%-49% = ++)
18,56 (KILDLTRVL; listed as Homo sapiens) [compound 56],++ (20%-49% = ++)
19,54 (FINPKGNWLL; listed as Homo sapiens) [compound 54],+++ (50%-75% = +++)
20,336 (GLMDGSPHFL; listed as Homo sapiens) [compound 336],++ (20%-49% = ++)
21,91 (SSLEPQIQPV; listed as Homo sapiens) [compound 91],+ (<20% = +)

row,Substance,Peptide exchange (MHC class I binding score)
1,75 (ILDNVKNLL; listed as Homo sapiens) [compound 75],+++ (50%-75% = +++)
2,45 (VLGPTPELV; listed as Homo sapiens) [compound 45],+++ (50%-75% = +++)
3,61 (HLPDFVKQL; listed as Homo sapiens) [compound 61],++ (20%-49% = ++)
4,29 (TLCNKTFTA; listed as Homo sapiens) [compound 29],+++ (50%-75% = +++)
5,85 (STLDGSLHAV; listed as Homo sapiens) [compound 85],+++ (50%-75% = +++)
6,323 (ILSVVNSQL; listed as Homo sapiens) [compound 323],+++ (50%-75% = +++)
7,10 (KTLDVFNIIL; listed as Homo sapiens) [compound 10],++ (20%-49% = ++)
8,71 (GLITVDIAL; listed as Homo sapiens) [compound 71],+++ (50%-75% = +++)
9,335 (VLLAAGPSAA; listed as Homo sapiens) [compound 335],++ (20%-49% = ++)
10,72 (GMIGFQVLL; listed as Homo sapiens) [compound 72],+++ (50%-75% = +++)
11,46 (SLAKHGIVAL; listed as Homo sapiens) [compound 46],+++ (50%-75% = +++)
12,62 (SLFNQEVQI; listed as Homo sapiens) [compound 62],+++ (50%-75% = +++)
13,47 (GLYQAQVNL; listed as Homo sapiens) [compound 47],+++ (50%-75% = +++)
14,337 (KVLGKIEKV; listed as Homo sapiens) [compound 337],+++ (50%-75% = +++)
15,66 (FITDFYTTV; listed as Homo sapiens) [compound 66],+++ (50%-75% = +++)
16,28 (TLYSMDLMKV; listed as Homo sapiens) [compound 28],+++ (50%-75% = +++)
17,35 (YVLPKLYVKL; listed as Homo sapiens) [compound 35],++ (20%-49% = ++)
18,12 (GLIYEETRGV; listed as Homo sapiens) [compound 12],++ (20%-49% = ++)
19,21 (SLYHRVLLY; listed as Homo sapiens) [compound 21],++++ (>=75% = ++++)
20,84 (FLEEEITRV; listed as Homo sapiens) [compound 84],+++ (50%-75% = +++)
21,70 (GLFSQHFNL; listed as Homo sapiens) [compound 70],+++ (50%-75% = +++)

row,Substance,Peptide exchange (MHC class I binding score)
1,60 (FLIDTSASM; listed as Homo sapiens) [compound 60],++ (20%-49% = ++)
2,90 (GAVAEEVLSSI; listed as Homo sapiens) [compound 90],+ (<20% = +)
3,48 (TLDHKPVTV; listed as Homo sapiens) [compound 48],++ (20%-49% = ++)
4,42 (VLSPFILTL; listed as Homo sapiens) [compound 42],+++ (50%-75% = +++)
5,26 (KVDGVVIQL; listed as Homo sapiens) [compound 26],+++ (50%-75% = +++)
6,14 (LLDHLSFINKI; listed as Homo sapiens) [compound 14],++ (20%-49% = ++)
7,58 (ALDDSLTSL; listed as Homo sapiens) [compound 58],++ (20%-49% = ++)
8,330 (FLWPKEVEL; listed as Homo sapiens) [compound 330],+++ (50%-75% = +++)
9,87 (YLTEVFLHVV; listed as Homo sapiens) [compound 87],+++ (50%-75% = +++)
10,321 (SLWFKPEEL; listed as Homo sapiens) [compound 321],+++ (50%-75% = +++)
11,39 (ALMAVVSGL; listed as Homo sapiens) [compound 39],+++ (50%-75% = +++)
12,23 (AQTVVVIKA; listed as Homo sapiens) [compound 23],+ (<20% = +)
13,25 (IQADDFRTL; listed as Homo sapiens) [compound 25],++ (20%-49% = ++)
14,22 (MLSDLTLQL; listed as Homo sapiens) [compound 22],++++ (>=75% = ++++)
15,81 (VLFLGKLLV; listed as Homo sapiens) [compound 81],++ (20%-49% = ++)
16,52 (ELLSSIFFL; listed as Homo sapiens) [compound 52],+++ (50%-75% = +++)
17,329 (FAWEPSFRDQV; listed as Homo sapiens) [compound 329],++ (20%-49% = ++)
18,79 (SLVPLQILL; listed as Homo sapiens) [compound 79],++++ (>=75% = ++++)
19,49 (LLDESKLTL; listed as Homo sapiens) [compound 49],+++ (50%-75% = +++)
